Assay results reported in patent publication US20250249118A1 (Eli Lilly, published 2025).

Experiments:
cynomolgus TfR ECD = target: T1, cynomolgus TfR ECD (cynomolgus); assay: SPR, Biacore 8K, 37 C, TfR ECD amine-coupled on CM4 chip, TBP as analyte, 2-state model; SEM 2.565 nM, n = 3
T1 chain: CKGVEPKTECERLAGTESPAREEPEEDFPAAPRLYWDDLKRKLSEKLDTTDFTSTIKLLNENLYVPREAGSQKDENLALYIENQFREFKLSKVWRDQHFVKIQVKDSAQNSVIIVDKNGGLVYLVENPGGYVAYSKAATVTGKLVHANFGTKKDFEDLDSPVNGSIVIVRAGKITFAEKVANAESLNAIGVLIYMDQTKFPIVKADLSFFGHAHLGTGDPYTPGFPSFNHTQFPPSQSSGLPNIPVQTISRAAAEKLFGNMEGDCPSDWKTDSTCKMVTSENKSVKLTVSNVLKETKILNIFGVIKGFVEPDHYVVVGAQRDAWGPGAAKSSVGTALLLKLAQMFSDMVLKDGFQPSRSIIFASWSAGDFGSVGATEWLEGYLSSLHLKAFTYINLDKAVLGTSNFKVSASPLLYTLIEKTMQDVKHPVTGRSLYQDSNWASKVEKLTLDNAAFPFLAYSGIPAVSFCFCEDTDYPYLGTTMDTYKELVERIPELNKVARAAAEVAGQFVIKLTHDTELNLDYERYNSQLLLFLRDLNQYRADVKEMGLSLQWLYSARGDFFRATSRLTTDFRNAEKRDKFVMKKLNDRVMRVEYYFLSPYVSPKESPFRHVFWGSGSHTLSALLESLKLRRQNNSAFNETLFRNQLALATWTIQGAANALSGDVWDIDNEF
Method: (§1) Target human and cynomologus TfR ECD's were immobilized on a CM4 chip (Cytiva P/N 29104989) using standard NHS-EDC amine coupling. The TfR binding proteins were prepared at a final concentration of 0.3, 0.1, 0.033, 0.01, 0.0033, 0.001, 0.00033, 0.0001 μM respectively by dilution of stock solution into running buffer.
(§2) Binding analysis was performed in a multi-cycle kinetics manner. Each analysis cycle consists of (1) injection of the lowest to highest concentration proteins over all Fc at 50 μL/min for 140 seconds followed by return to buffer flow for 400 seconds to monitor dissociation phase; (2) regeneration of chip surfaces with injection of 3M magnesium chloride, for 30 seconds at 100 μL/min over all cells; and (3) equilibration of chip surfaces with a 50 μL (30-sec) injection of HBS-EP+. Data were processed using standard double-referencing and fit to a 2-state binding model using Biacore 8K Evaluation software, to determine the association rate (kₒₙ, M⁻¹ s⁻¹ units), dissociation rate (koff, s⁻¹ units), and Rₘₐₓ (RU units). The equilibrium dissociation constant (KD) is calculated from the relationship KD=koff/kₒₙ, and is in molar units.

human TfR ECD = target: T2, human TfR ECD (human, UniProt P02786 89-760); assay: SPR, Biacore 8K, 37 C, TfR ECD amine-coupled on CM4 chip, TBP as analyte, 2-state model; SEM 7.949 nM, n = 3
T2 construct: extracellular domain; also called human Transferrin Receptor 1 extracellular domain
Method: as §1, §2

B1: TBP4 (One Arm Heteromab 1, A378C) (antibody)
heavy: EVQLVESGGGLVKPGGSLRLSCVASGFTFSSYSMNWVRQAPGKGLEWVSSISSSSSYIYYADSVKGRFTISRDNAKNSLYLQMNSLRAEDTAVYYCARRHGYSNSDAFDNWGQGTLVTVSSASTKGPSVFPLAPCSRSTSESTAALGCLVKDYFPEPVTVSWNSGALTSGVHTFPAVLQSSGLYSLSSVVTVPSSSLGTKTYTCNVDHKPSNTKVDKRVESKYGPPCPPCPAPEAAGGPSVFLFPPKPKDTLMISRTPEVTCVVVDVSQEDPEVQFNWYVDGVEVHNAKTKPREEQFNSTYRVVSVLTVLHQDWLNGKEYKCKVSNKGLPSSIEKTISKAKGQPREPQVSTLPPSQEEMTKNQVSLMCLVYGFYPSDICVEWESNGQPENNYKTTPPVLDSDGSFFLYSVLTVDKSRWQEGNVFSCSVMHEALHNHYTQKSLSLSLG
light: DIQMTQSPSAMSASVGDRVTITCRASQGISHYLVWFQQKPGKVPKRLIYAASSLQSGVPSRFSGSGSGTEFTLTISSLQPEDFATYYCLQHNSYPWTFGQGTKVEIKRTVAAPSVFIFPPSDEQLKSGTASVVCLLNNFYPREAKVQWKVDNALQSGNSQESVTEQDSKDSTYSLSSTLTLSKADYEKHKVYACEVTHQGLSSPVTKSFNRGEC
Fc: ESKYGPPCPPCPAPEAAGGPSVFLFPPKPKDTLMISRTPEVTCVVVDVSQEDPEVQFNWYVDGVEVHNAKTKPREEQFNSTYRVVSVLTVLHQDWLNGKEYKCKVSNKGLPSSIEKTISKAKGQPREPQVYTLPPSQGDMTKNQVQLTCLVKGFYPSDICVEWESNGQPENNYKTTPPVLDSDGSFFLASRLTVDKSRWQEGNVFSCSVMHEALHNHYTQKSLSLSLG
notes: One-arm heteromab: HC1 with LC1, plus an Fc-only HC2; IgG4 PAA; also called OAH1; copies: 1 + 1 + 1
With B1 the Kd (cynomolgus TfR ECD) was 300 nM and the Kd (human TfR ECD) was 154 nM.
